{"source": "paper PMC4856986", "binders": {"B1": {"name": "Pax element (Cy5/UL) (dsDNA)", "DNA 1": "AAGCATTTTCACGCATGAGTGCACAG", "DNA 2": "CTGTGCACTCATGCGTGAAAATGCTT"}, "B2": {"name": "UL-More (dsDNA)", "DNA 1": "TCCTCATGCATATGCATGAGGA", "DNA 2": "TCCTCATGCATATGCATGAGGA"}, "B3": {"name": "Esrrb element (Cy5/UL) (dsDNA)", "DNA 1": "TGGTGACCTTGGCT", "DNA 2": "AGCCAAGGTCACCA"}, "B4": {"name": "Prox1 15 bp (NAT decoy when unlabelled) (dsDNA)", "DNA 1": "CTAGCATTGTCTGGG", "DNA 2": "CCCAGACAATGCTAG"}, "B5": {"name": "Prox1 crystal DNA, 16 bp with CG overhangs (dsDNA)", "DNA 1": "CACTAGCATTGTCTGGG", "DNA 2": "GCCCAGACAATGCTAGT"}, "B6": {"name": "Cy5-Pore (dsDNA)", "DNA 1": "CACATTTGAAAGGCAAATGGAG", "DNA 2": "CTCCATTTGCCTTTCAAATGTG"}}, "key": {"PAX9": {"biological_target": "PAX9 (mouse, UniProt P47242 4-130)", "sequence (P47242 4-130)": "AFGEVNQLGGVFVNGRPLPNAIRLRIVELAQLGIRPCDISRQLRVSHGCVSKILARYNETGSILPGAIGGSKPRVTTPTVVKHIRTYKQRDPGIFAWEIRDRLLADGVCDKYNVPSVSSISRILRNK", "experiment": "EMSA and competition"}, "OCT6-POU [1]": {"biological_target": "T1, OCT6-POU (mouse, UniProt P21952 245-396)", "T1 sequence": "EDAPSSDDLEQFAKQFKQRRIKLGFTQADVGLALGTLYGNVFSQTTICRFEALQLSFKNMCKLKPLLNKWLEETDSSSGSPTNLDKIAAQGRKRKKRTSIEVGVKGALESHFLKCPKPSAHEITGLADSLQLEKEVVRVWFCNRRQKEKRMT", "experiment": "EMSA competition"}, "[2]": {"biological_target": "T2, ESRRB (DNA binding domain) (mouse, UniProt Q61539 100-186)", "T2 sequence": "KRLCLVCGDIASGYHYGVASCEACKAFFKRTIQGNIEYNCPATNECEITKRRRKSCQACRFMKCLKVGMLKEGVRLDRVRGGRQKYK", "experiment": "EMSA and competition"}, "SOX18-HMG (79 aa) [3]": {"biological_target": "T3, SOX18-HMG (79 aa) (Mus musculus, UniProt P43680 77-155)", "T3 sequence (P43680 77-155)": "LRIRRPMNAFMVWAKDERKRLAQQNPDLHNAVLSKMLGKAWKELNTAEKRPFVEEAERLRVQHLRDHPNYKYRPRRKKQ", "experiment": "ITC"}, "SOX18-HMG (79 aa) [4]": {"biological_target": "T3, SOX18-HMG (79 aa)", "experiment": "X-ray crystal structure"}, "BRN2-POU": {"biological_target": "T4, BRN2-POU (mouse, UniProt P31360 264-415)", "T4 sequence": "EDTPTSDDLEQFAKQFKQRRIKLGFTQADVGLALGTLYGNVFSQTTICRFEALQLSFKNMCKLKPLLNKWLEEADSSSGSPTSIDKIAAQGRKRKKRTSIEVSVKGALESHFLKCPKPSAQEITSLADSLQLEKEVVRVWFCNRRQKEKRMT", "experiment": "EMSA"}, "OCT6-POU [5]": {"biological_target": "T1, OCT6-POU", "experiment": "EMSA"}}}
{"binder": "B1", "values": [{"measurement": "binding result", "setting": "PAX9", "result": "binds"}]}
{"binder": "B2", "values": [{"measurement": "binding result", "setting": "OCT6-POU [1]", "result": "binds"}]}
{"binder": "B3", "values": [{"measurement": "binding result", "setting": "[2]", "result": "binds"}]}
{"binder": "B4", "values": [{"measurement": "Ka", "setting": "SOX18-HMG (79 aa) [3]", "result": "2.47e+06", "unit": "M⁻¹"}]}
{"binder": "B5", "values": [{"measurement": "binding result", "setting": "SOX18-HMG (79 aa) [4]", "result": "binds"}]}
{"binder": "B6", "values": [{"measurement": "binding result", "setting": "BRN2-POU", "result": "binds"}, {"measurement": "binding result", "setting": "OCT6-POU [5]", "result": "binds"}]}
